# Experimental data as given in patent US20200339648A1 (University of Washington, published 2020).
# T1: human IL-2Rβγc on human cells (YT-1 NK cells) (human, UniProt P14784 27-551; P31785 23-369)
# T1 sequence (looked up) 1: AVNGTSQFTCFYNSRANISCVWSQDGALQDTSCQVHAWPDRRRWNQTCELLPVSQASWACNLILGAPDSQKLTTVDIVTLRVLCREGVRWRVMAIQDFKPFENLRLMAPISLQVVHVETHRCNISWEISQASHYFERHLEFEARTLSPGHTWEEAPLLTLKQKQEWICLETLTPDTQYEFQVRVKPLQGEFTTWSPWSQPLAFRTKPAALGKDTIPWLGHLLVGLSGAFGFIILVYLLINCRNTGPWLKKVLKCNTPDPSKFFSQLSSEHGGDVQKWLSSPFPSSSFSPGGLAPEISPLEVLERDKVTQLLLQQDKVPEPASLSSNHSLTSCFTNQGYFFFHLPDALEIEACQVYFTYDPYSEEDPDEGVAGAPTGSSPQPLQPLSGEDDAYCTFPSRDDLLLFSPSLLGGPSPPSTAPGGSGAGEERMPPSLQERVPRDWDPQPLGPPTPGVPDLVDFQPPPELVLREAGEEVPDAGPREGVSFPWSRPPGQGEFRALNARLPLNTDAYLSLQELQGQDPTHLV
# T1 sequence (looked up) 2: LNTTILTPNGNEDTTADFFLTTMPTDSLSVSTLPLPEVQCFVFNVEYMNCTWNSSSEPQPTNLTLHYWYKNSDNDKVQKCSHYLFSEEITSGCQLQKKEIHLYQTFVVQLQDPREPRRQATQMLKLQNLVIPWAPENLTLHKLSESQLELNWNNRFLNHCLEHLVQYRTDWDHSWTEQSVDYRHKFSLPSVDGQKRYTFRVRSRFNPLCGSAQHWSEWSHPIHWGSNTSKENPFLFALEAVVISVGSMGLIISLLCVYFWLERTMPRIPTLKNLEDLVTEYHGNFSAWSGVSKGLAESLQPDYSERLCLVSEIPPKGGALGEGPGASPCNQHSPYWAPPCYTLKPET
# T2: mouse IL-2Rβγc on murine cells (CTLL-2 T cells, primary CD4+ T cells) (mouse, UniProt P16297 27-539; P34902 23-369)
# T2 sequence (looked up) 1: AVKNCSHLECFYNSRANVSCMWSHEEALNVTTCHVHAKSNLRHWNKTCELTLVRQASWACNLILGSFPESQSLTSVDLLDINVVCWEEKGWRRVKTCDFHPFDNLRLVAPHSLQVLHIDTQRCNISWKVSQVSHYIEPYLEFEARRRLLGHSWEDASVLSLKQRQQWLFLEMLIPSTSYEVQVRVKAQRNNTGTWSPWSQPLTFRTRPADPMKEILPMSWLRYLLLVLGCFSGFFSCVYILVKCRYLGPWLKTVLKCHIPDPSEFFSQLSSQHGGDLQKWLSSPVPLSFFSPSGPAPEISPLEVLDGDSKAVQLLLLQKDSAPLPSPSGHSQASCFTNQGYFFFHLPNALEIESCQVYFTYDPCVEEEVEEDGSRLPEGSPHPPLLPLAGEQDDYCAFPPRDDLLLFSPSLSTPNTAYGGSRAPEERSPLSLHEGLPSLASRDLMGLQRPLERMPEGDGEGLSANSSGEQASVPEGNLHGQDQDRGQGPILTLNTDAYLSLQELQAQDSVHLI
# T2 sequence (looked up) 2: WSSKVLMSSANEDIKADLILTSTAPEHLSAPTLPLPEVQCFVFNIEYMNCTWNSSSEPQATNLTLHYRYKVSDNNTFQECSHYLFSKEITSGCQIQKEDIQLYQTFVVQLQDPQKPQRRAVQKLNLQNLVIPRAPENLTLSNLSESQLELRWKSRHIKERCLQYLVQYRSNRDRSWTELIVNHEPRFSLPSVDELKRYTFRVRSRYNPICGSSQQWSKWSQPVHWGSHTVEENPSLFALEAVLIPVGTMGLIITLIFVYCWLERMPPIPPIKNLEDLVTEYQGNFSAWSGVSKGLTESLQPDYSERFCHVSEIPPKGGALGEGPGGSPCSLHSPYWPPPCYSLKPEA
# B1: G1_neo2_40_1F (designed binder)
# chain: STKKTQLLAEHALLDALMMLNLLPEPNEKLNRIITTMQSWIFTGKIDGDGAQELAKEVEELEQEHEKRGIDVEDYASNLKVILLELA
# notes: also called G1_ne02_40_1F
# B2: mouse interleukin-2 (mIL-2) (ligand, UniProt P04351 21-169, looked up)
# chain: APTSSSTSSSTAEAQQQQQQQQQQQQHLEQLLMDLQELLSRMENYRNLKLPRMLTFKFYLPKQATELKDLQCLEDELGPLRHVLDLTQSKSFQLEDAENFISNIRVTVVKLKGSDNTFECQFDDESATVVDFLRRWIAFCQSIISTSPQ
# notes: range 1-149; Baculovirus expression for SPR; also called MmIL-2; mouse IL-2
# B3: G2_neo2_40_1F_dsn36 (designed binder)
# chain: PKKKIQLLAEHALLDALMILNIVKTNSQNAEEKLEDYASNVEVILEEIARLMESGDQKDEAEKAKRMKEWMKRIKTTASEDEQEEMANRIITLLQSWIFS
# notes: E. coli, N-terminal 6xHis tag and thrombin site
# How the values were obtained:
# [1] = target: T1, human IL-2Rβγc on human cells (YT-1 NK …); test: cell-based or functional assay
# [2] = target: T2, mouse IL-2Rβγc on murine cells (CTLL-2 …); test: cell-based or functional assay
Binder,"EC50 (CD25-) pSTAT5p, human NK (YT, CD25-) cells [1]","EC50 (CD25+) pSTAT5, murine T (CTLL-2, CD25+) cells [2]"
B1,90 pM,0.2 nM
B2,39 nM,3 pM
B3,0.12 nM,1.36 nM
